Assay results taken from patent US20250340631A1 (HARBOUR BIOMED SHANGHAI, published 2025).
Positions count from the first letter of the chain named.

B1: PR005520 (bispecific antibody)
chain 1: EVQLVESGGGLVQPGGSLRLSCAASGFTFSSYWMHWVRQVPGKGLVWVSRINSDGSRTIYADSVKGRFTISRDNAKNTLYLQMNSLRAEDTAVYYCARGEDHDILTGYPIRGQGTTVTVSSGGGGSGGGGSGGGGSEVQLVESGGGLVQPGGSLRLSCAASGFTFSSYWMHWVRQVPGKGLVWVSRINSDGSRTIYADSVKGRFTISRDNAKNTLYLQMNSLRAEDTAVYYCARGEDHDILTGYPIRGQGTTVTVSSASEPKSSDKTHTCPPCPAPEAAGGPSVFLFPPKPKDTLMISRTPEVTCVVVDVSHEDPEVKFNWYVDGVEVHNAKTKPREEQYNSTYRVVSVLTVLHQDWLNGKEYKCKVSNKALPAPIEKTISKAKGQPREPQVCTLPPSREEMTKNQVSLSCAVKGFYPSDIAVEWESNGQPENNYKTTPPVLDSDGSFFLVSKLTVDKSRWQQGNVFSCSVMHEALHNHYTQKSLSLSPGK
chain 2: not shown
light: QAVVTQEPSLTVSPGGTVTLTCRSSTGAVTTSNYANWVQQKPGQAPRGLIGGTNKRAPWTPARFSGSLLGDKAALTLLGAQPEDEAEYFCALWYSNLWVFGGGTKLTVLGQPKAAPSVTLFPPSSEELQANKATLVCLISDFYPGAVTVAWKADSSPVKAGVETTTPSKQSNNKYAASSYLSLTPEQWKSHRSYSCQVTHEGSTVEKTVAPTECS
notes: PR001848 / PR004533; LALA
B2: PR005401 (bispecific antibody, human IgG1, lambda, L234A L235A)
chain: B1 chain 1 with N52D, D54R, N188D, D190R
heavy: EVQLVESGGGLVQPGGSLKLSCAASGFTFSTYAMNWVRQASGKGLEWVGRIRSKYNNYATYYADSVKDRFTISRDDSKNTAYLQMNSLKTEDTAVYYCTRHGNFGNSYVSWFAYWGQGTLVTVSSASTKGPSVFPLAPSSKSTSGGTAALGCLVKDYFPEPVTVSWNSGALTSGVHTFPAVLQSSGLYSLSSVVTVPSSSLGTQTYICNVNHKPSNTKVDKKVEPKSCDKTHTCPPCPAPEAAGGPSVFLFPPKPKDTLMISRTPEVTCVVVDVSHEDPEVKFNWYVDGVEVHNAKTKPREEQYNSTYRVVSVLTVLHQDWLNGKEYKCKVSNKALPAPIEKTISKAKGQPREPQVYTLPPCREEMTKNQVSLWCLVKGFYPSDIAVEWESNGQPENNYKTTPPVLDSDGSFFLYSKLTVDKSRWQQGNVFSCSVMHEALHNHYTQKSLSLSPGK
light: B1 light
notes: structure 1; CD3 Fab from PR003886, CLDN18.2 VH from PR007244; LALA
B3: PR007083 (bispecific antibody, human IgG1, lambda)
chain: B1 chain 1 with S49C, N52S, G55A, I70C, S185C, N188S, G191A, I206C, G281A
heavy: EVQLVESGGGLVQPGGSLKLSCAASGFTFSTYAMNWVRQASGKGLEWVGRIRSKYNNYATYYADSVKDRFTISRDDSKNTAYLQMNSLKTEDTAVYYCTRHGNFGNSYVSWFAYWGQGTLVTVSSASTKGPSVFPLAPSSKSTSGGTAALGCLVKDYFPEPVTVSWNSGALTSGVHTFPAVLQSSGLYSLSSVVTVPSSSLGTQTYICNVNHKPSNTKVDKKVEPKSCDKTHTCPPCPAPEAAGAPSVFLFPPKPKDTLMISRTPEVTCVVVDVSHEDPEVKFNWYVDGVEVHNAKTKPREEQYNSTYRVVSVLTVLHQDWLNGKEYKCKVSNKALPAPIEKTISKAKGQPREPQVYTLPPCREEMTKNQVSLWCLVKGFYPSDIAVEWESNGQPENNYKTTPPVLDSDGSFFLYSKLTVDKSRWQQGNVFSCSVMHEALHNHYTQKSLSLSPGK
light: B1 light
notes: structure 1; CD3 Fab from PR003886; AAA

How the values were obtained:
human CLDN18.2 [1] = target: T1, human CLDN18.2 (human); assay: FACS on NUGC4_D8 cells
T1 construct: the HEK293 line was made with a GenScript plasmid; also called hCLDN18.2

human CLDN18.1 = target: T2, human CLDN18.1 (human, UniProt P56856 1-261); assay: FACS on HEK293/hCLDN18.1 cells
T2 construct: whole, on cells; also called hCLDN18.1
Description: (§1) Antibodies were assayed for binding affinity by FACS. Test cells include HEK293/hCLDN18.2, HEK293/hCLDN18.1, NUGC4_D8 and Jurkat cells. […] The cell density was adjusted to 10⁶ cells/mL, and 50 μL of the cell suspension was added to each well of a 96-well plate. Antibodies were diluted to different concentrations with FACS buffer, and 50 μL of the antibody dilution was added to each well of the 96-well plate. After 2 h of incubation at 4° C., the plate was washed twice with FACS buffer. […] After 1 h of incubation at 4° C., the plate was washed twice with FACS buffer. The cells were resuspended in fixative solution, and then the fluorescence of the cells was monitored using an FACS instrument (ACEA NovoCyte).

[2] = target: T3, human CD3 on Jurkat cells (human, UniProt P07766 23-207); assay: FACS on Jurkat cells
T3 construct: whole, on cells; on cells it stands in the whole CD3/TCR complex; also called CD3-expressing cells
Description: as §1

human CLDN18.2 [3] = target: T1, human CLDN18.2; assay: cell-based or functional assay
human CLDN18.2 [4] = target: T1, human CLDN18.2; assay: FACS on HEK293/hCLDN18.2 cells
Description: as §1

[5] = target: CLDN18.2 of SNU620 cells (methionine to leucine at amino acid 149) (human, UniProt P56856-2 1-261); assay: cell-based or functional assay
[6] = target: T3, human CD3 on Jurkat cells; assay: FACS on Jurkat cells (CD3)
Description: as §1

T3 sequence (P07766 23-207): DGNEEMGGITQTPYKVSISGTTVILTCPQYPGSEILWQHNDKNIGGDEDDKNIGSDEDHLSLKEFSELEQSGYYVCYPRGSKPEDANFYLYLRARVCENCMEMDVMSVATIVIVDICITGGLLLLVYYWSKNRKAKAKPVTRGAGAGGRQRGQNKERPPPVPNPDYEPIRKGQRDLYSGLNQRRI
CLDN18.2 of SNU620 cells (methionine to leucine at amino acid 149), sequence (P56856 other isoform, or with tags, fused parts or gaps limits assumed): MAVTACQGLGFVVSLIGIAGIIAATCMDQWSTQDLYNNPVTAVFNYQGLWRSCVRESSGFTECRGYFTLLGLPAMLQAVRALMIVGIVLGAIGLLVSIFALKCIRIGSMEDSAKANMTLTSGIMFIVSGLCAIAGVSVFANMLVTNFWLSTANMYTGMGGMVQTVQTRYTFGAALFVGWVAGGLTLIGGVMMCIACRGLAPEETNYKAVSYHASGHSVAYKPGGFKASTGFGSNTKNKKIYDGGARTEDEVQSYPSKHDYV
T2 sequence (P56856 whole entry): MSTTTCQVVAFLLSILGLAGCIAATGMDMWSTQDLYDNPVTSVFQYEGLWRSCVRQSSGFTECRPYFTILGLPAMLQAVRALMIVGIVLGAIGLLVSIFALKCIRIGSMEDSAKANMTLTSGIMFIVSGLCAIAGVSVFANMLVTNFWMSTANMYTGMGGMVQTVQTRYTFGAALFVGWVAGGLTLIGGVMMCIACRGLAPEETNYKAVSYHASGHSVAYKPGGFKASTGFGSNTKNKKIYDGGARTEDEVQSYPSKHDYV

Row | Binder | EC50 (human CLDN18.2 [1]) [nM] | binding result (human CLDN18.1) | binding result [2] | TDCC, Titer EC50 (pM), NUGC4_D8 (human CLDN18.2 [3]) [pM] | EC50 (human CLDN18.2 [4]) [nM] | TDCC, Titer EC50 (pM), SNU620 [5] [pM] | binding result [6]
1 | B1 | 13.9 | no binding | binds | 22.4 | – | – | –
2 | B2 | 13.1 | – | binds | 6.4 | 17.5 | 25.8 | –
3 | B3 | – | – | – | – | 9.6 | – | binds
